Measurements reported in the nanobody polyreactivity screen of Harvey et al. (2022).

assay: yeast display, Sf9 membrane polyspecificity reagent, FACS + sequencing; frameworks hold sequencing errors
Procedure, shortened: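 A synthetic nanobody library was expressed on Saccharomyces cerevisiae BJ5465 by galactose induction for 36–48 hours. The library was stained for 1 hour at 4 °C with 10% biotinylated, detergent-solubilized Sf9 membrane reagent and enriched with streptavidin microbeads before FACS. Low and high (top ~1%) gates were set on anti-HA fluorescence for expression and streptavidin fluorescence for reagent binding, and each polyreactivity label reflects the gate of origin.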

Sequence	polyreactivity (PSR sort gate)
QVQLEESGGGLVQAGGRLRLSCAASGSIFTGYTMGWYRQAPGKERELVASISRRGGRTYYADSVKGRFTISRDNAKNTVYLQMNSLKPEDTAVYYCAVDRVPWRYQDSYNYWGQGTQVTVSS	high polyreactivity
QVQLEESGGGLVQAGGRLRLSCAASGSTFVDYAMGWYRQAPGKQRELVAAISWRGGSTYYADSVKGRFTISRDNAKKTVYLQMNSLKPEDTAVYYCAAEHSGRSPYGYGYWGQGTQVTVSS	high polyreactivity
QVQLEESGGGLVQAGGRLRLTCAASGRTFFGYPMGWYRQAPGKERELVAAITSSGGRTYYADSVKGRFTISRDNPKNTDYLQMNSLKPEDTAVYYCAARRYRLSTPEFNYWGQGTQVTVSS	high polyreactivity
QVQLEESGGGLVQAGGSLRISCAASGKIFSYNAMGWYRHAPGKERELVAAISRSGGSTYYADSVKGRFTISRDNAKNTVYLQMNSLKPEDTAVYYCAADWRGRKYDYWGQVTQVTVSS	high polyreactivity
QVQLEESGGGLVQAGGSLRISCAASGRTFYVNAMGRSRQAPGKERELVAAIRYSDGRTYYADSVKGRFTISRDNAKNTVYLQMNSLKPEDTAVYYCAADTRFISRENYWGQGTQVTVSS	high polyreactivity
QVQLEESGGGLVQAGGSLRISCAAYGSTFYYNVMGWYRQAPGKERELVAAITWRGDITYYADSVKGRFTISRDNAKYNVYLQMKCLKPEDTAVFYCAKRYQPSYRSNFWGEGTQVTVSS	low polyreactivity
QVQLEESGGGLVQAGGSLRLICAASGFIFLYYAMGWYRQAPGKERELVAAIDYSGGSTNYADSVKGRFTISRDNAKNTVYLQMHSLKPEDTAVYFFNAEYTWHRGYDYWGQGTQVTVSS	low polyreactivity
QVQLEESGGGLVQAGGSLRLICAASGLTFPPNSMRWYRQATGKERELVADSGGSTNYADSVKGRFTISRDNAKNNVYLQMNSLKPEDTAVYYCAAPPYSDGQWDDYWGQGTQVTVSS	low polyreactivity
QVQLEESGGGLVQAGGSLRLICAASGLTFYSYAMGWYRQAPGKERELVATIRWSGGSTYYADSVKGRFTISRDNANNTVYLQMNSLKPEDTAVYYCNKRRYPVGSLFDYWGQGTQVTVSS	low polyreactivity
QVQLEESGGGLVQAGGSLRLICAASGSTFYPNAMGWYRQAPGKERELVAAITDSVGTTNYADSVKGRFTISRDNAKNTVYLQMNSLKPEDTAVYYCAKVKSYWNGYRYYYWGHGTQVTVSS	low polyreactivity
QVQLEESGGGLVQAGGSLRLSCAASGAIFDGYGMGGYSQAPGQERELVAAIRWGDGITYYADSVKGRFTISRDNAKTTVYLQMNRLKPDDTAVYYCAAVQHGHEPRVQASYDYWGQGTQVTVSS	low polyreactivity
QVQLEESGGGLVQAGGSLRLSCAASGFIFGKNDMGWYRQAPWKERELVAAITIGGSTNYADSVKGRFTISRDNAKNTVYLQMNSLKPEDTAVYYCNADSYHYGTSLYNYWGQGTQVTVSS	low polyreactivity
QVQLEESGGGLVQAGGSLRLSCAASGFIFLLNFMGWYRQAPAKDRELVAGNRSSTASTYYADSVKGRFTISRDNAKNTFYLEMNCLKPEDTAVSYCAAVSGWQYEYYSWGQGTQVTVSS	low polyreactivity
QVQLEESGGGLVQAGGSLRLSCAASGFIFTPYAMGWYRQAPGKERELVAAISRSGGSTYYADSVKGRFTISRDNAKNTVYLQMNSLKPEDTAVYYCAADVYRTAYYYGSYYWGQGTQVTVSS	high polyreactivity
QVQLEESGGGLVQAGGSLRLSCAASGFIFYIYAMGWYRQAPGKERELVAAITSGGSTNYADSVKGRFTITRDNAKNTVYLQMNSLKPEDTAVYYCAADSYYGYDYWGQVTQVTVSS	low polyreactivity
QVQLEESGGGLVQAGGSLRLSCAASGFIITGYTMGWYRQAPGKERELVAVISYSGGNTYYADSVKGRFTSSRDNEKNTVYLQMISVKPDYTAVYYCNKLTYKGYEYWGQGTQVNVSS	high polyreactivity
QVQLEESGGGLVQAGGSLRLSCAASGFIITWYTMGWYRQAPGKERELVAAITSGGNTNYADSVKGRFTISRDNAKNTVYLQMNCLKPEDTAVYYCARGYLASRLKFAKYDYWGQGTQVTVSS	high polyreactivity
QVQLEESGGGLVQAGGSLRLSCAASGFTFFQYAMGWYRQAPGKERELVAAITSGVSTNYADSVKGRFTISRDNAKNTVYVQMNSLKPEDTAVYYCAADPRSLQSWRGEFAGEYWGQGTQVTVSS	low polyreactivity
QVQLEESGGGLVQAGGSLRLSCAASGFTFFSYYAMGWYIQAPGKERELVATITSGASTNYADSVKGRFTISRDNAKNTVYLQMNSLKPEDTAVYYCAAAYFYWRVDKYYYWGQGTQVTVSS	low polyreactivity
QVQLEESGGGLVQAGGSLRLSCAASGFTFGGYAMGWYRQAPGKERELVAAITGSGGNTFYADSVKGRFTISRDYAKNTVYLQMNCLKPEDTAVYYCAKSWYPWSSYGYYRRYDSWGQGTQVTLSS	low polyreactivity
QVQLEESGGGLVQAGGSLRLSCAASGFTFLYNAMGWYRQAPGKERELVASINSGGSTNYADSVKGRVTISRDNAKNTVYLQMNSLKPEDTAVYYCNAKRHVRKGDYWGQGTQVTVSS	low polyreactivity
QVQLEESGGGLVQAGGSLRLSCAASGFTFNLYTMGWYRQAPGKERELVAAISRSGDRTYYADSVKGRFTISRDNAKNTVYLQMNSLKPEDTAVYYCAARSYRPTRGDYWGQGTQVTVSS	high polyreactivity
QVQLEESGGGLVQAGGSLRLSCAASGFTFSLYAMGWYRQAPGKERELVAAISTSGGSTYYADSVKGRFTISRDNAKNTVYLQMNSLKPEDTAVYYCAATTVYSRAYYYVTYWYGYWGQGTQVTVSS	low polyreactivity
QVQLEESGGGLVQAGGSLRLSCAASGFTFYGNAMGWYRQAPGKERELVATIRYRGGRTYYADSVKGRFTISRDNAKNTVYLQMNSLKPEDTAVYYCNRVGYQYGSDQEDDYWGQGTQVTVSS	high polyreactivity
QVQLEESGGGLVQAGGSLRLSCAASGFTIIRYAMGWYRQAPGKERELVATISRRGASTYYADSVKGRFTISRANAKNTVYLQMNSLKPEDTAVYYCAKRTYSRKFRGAYNYWGQGTQVTVSS	high polyreactivity
QVQLEESGGGLVQAGGSLRLSCAASGFTISYYAMGWYRQAPGKERELVAAISSSGGSTYYADSVKGRFTISRDNAKNTVYLQMNSLKPDDTAVYYCAAGWPEYLRDGDYWGQGTQVTVSS	low polyreactivity
QVQLEESGGGLVQAGGSLRLSCAASGIIFAANAMGWYRQAPGKERELVAAISKNGGITYYADSVKGRFTISRDNAKNTVYLQMNSLKPEDTAVYYCAARWRQTRRYYYWGQGTQVTVSS	high polyreactivity
QVQLEESGGGLVQAGGSLRLSCAASGIIFIDYAMGWYRQAPGKERELVAAISNGGSTYYADSVKGSFTISRDNAKNTVYLQMNSLKPEDTEVYYCAAGGALASHWSKKLYDYWGQGTQVTVSS	low polyreactivity
QVQLEESGGGLVQAGGSLRLSCAASGIIFPVYAMGWYRQAPGKERELVAAITRSGGITYYADSVKGRFTISRDNEKNTVYLQMNSLKPEDTAVYDCAASVYSLSRRSWMDYWGQGTQVTVSS	low polyreactivity
QVQLEESGGGLVQAGGSLRLSCAASGIIFQRNDMGWYRQAPGKERELVANIRDGGITYADSVKGRFTISRDNAKNTVYLQMNSLKPEDTAVYYCARDDTSPGYCDQSSNAAYYYWGQGTQVTVSS	low polyreactivity
